Reference: the supplement of paper PMC6757056
± gives the standard deviation of the averaged measurements.

B1: library; a variant is named by its letters at N, in order (parent)
chain: GCUGUCACCGGUGUAUUACCCUAGUGGUCGACCGGUCUGAUGAGUCUNNNNNNAGACGAAACAGC

How the values were obtained:
hypoxanthine [1] = variants of: B1; experiment: FACS-Seq fitted mean relative fluorescence mCherry/BFP without ligand (log10 relative fluorescence); ligand: hypoxanthine (xanthine aptamer); higher = higher reporter protein expression; settings: HEK293T, ligand present: no
Outline: (§1)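 Fluorescence comes from a normal fit to bin counts, normalized against controls. HEK293T libraries lentivirally given a ribozyme-switch mCherry reporter and an EF1α-BFP marker were enriched, incubated 48 h with or without ligand, and sorted by mCherry/BFP into 6 bins. Bin genomic DNA was PCR-amplified, barcoded and sequenced on MiSeq. The log10(mCherry/BFP) mean was scaled to five spiked-in control ribozymes.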

hypoxanthine [2] = variants of: B1; experiment: normalized RNA/DNA level with ligand (relative to sTRSVctl = 100) (log10 (% of sTRSVctl)); ligand: hypoxanthine (xanthine aptamer); higher = less ribozyme self-cleavage, higher mRNA level; settings: ligand concentration (+) RNA-Seq: 5 mM, HEK293T, reporter: mCherry (pCS4076), ligand present: yes
Outline: (§2)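 Total RNA, extracted with EDTA 72 h after HEK293T cells were transfected with 4 µg per 6-well well of reporter-linked ribozyme switch library plasmids, was reverse-transcribed, amplified, barcoded and sequenced. Ligand, if used, was added 1 h before transfection. RNA level was derived from RNA reads divided by DNA reads and normalized to a spiked-in non-cleaving sequence or to the top sequences. This was multiplied by 100 and log10-transformed, with the top set of 25 sequences and a ≥100 DNA read minimum.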

hypoxanthine [3] = variants of: B1; experiment: normalized RNA/DNA level without ligand (relative to sTRSVctl = 100) (log10 (% of sTRSVctl)); ligand: hypoxanthine (xanthine aptamer); higher = less ribozyme self-cleavage, higher mRNA level; settings: HEK293T, reporter: mCherry (pCS4076), ligand present: no
Outline: as §2

hypoxanthine [4] = variants of: B1; experiment: FACS-Seq fitted mean relative fluorescence mCherry/BFP with ligand (log10 relative fluorescence); ligand: hypoxanthine (xanthine aptamer); ligand concentration (+) FACS-Seq: 5 mM; higher = higher reporter protein expression; settings: HEK293T, ligand present: yes
Outline: as §1

Variant | FACS-Seq fitted mean (log10) (hypoxanthine [1]) | normalized RNA/DNA level with ligand (log10) (hypoxanthine [2]) | normalized RNA/DNA level without ligand (log10) (hypoxanthine [3]) | FACS-Seq fitted mean (log10) (hypoxanthine [4])
AGCGGA | 0.427 ± 0.044 | 1.945 ± 0.0055 | 1.71 ± 0.036 | 0.456 ± 0.021
UGCCUC | 0.735 ± 0.008 | 2 ± 0.064 | 2.01 ± 0.023 | 0.659 ± 0.051
UGCCUG | 0.608 ± 0.0066 | 1.91 ± 0.1 | 1.73 ± 0.042 | 0.712 ± 0.07
UGCCUA | 0.664 ± 0.022 | 1.94 ± 0.039 | 1.929 ± 0.0053 | 0.57 ± 0.049
AGCGCG | 0.0574 ± 0.015 | 1.91 ± 0.083 | 1.43 ± 0.051 | 0.359 ± 0.012
AGCGCU | 0.228 ± 0.049 | 1.93 ± 0.032 | 1.85 ± 0.028 | 0.22 ± 0.0027
UGCGGC | 0.67 ± 0.028 | 1.98 ± 0.035 | 1.9 ± 0.071 | 0.708 ± 0.037
UGCGGA | 0.465 ± 0.014 | 1.87 ± 0.056 | 1.518 ± 0.0062 | 0.733 ± 0.033
AGCCGG | -0.0509 ± 0.035 | 1.91 ± 0.012 | 1.67 ± 0.02 | 0.305 ± 0.055
AGCCGA | 0.399 ± 0.018 | 1.925 ± 0.0069 | 1.68 ± 0.027 | 0.547 ± 0.036
UGAUUU | 0.485 ± 0.022 | 1.945 ± 0.0024 | 1.924 ± 0.012 | 0.6805 ± 0.0064
UGAUUC | 0.59 ± 0.061 | 1.993 ± 0.0057 | 1.977 ± 0.011 | 0.627 ± 0.06
CGAUAC | -0.0585 ± 0.029 | 1.894 ± 0.0067 | 1.69 ± 0.019 | 0.176 ± 0.056
CGAUAG | 0.613 ± 0.0027 | 1.86 ± 0.12 | 1.7 ± 0.063 | 0.639 ± 0.052
CGAUAA | 0.668 ± 0.13 | 1.86 ± 0.047 | 1.57 ± 0.022 | 0.637 ± 0.12
CGGACA | 0.518 ± 0.098 | 1.9 ± 0.068 | 1.66 ± 0.037 | 0.612 ± 0.016
AGAUGA | 0.409 ± 0.022 | 1.93 ± 0.05 | 1.65 ± 0.034 | 0.591 ± 0.025
AGAUGG | -0.23 ± 0.04 | 1.84 ± 0.035 | 1.36 ± 0.019 | 0.0811 ± 0.0062

Variant | FACS-Seq fitted mean (log10) (hypoxanthine [1]) | normalized RNA/DNA level with ligand (log10) (hypoxanthine [2]) | normalized RNA/DNA level without ligand (log10) (hypoxanthine [3]) | FACS-Seq fitted mean (log10) (hypoxanthine [4])
AGAUGU | 0.466 ± 0.021 | 1.9 ± 0.037 | 1.56 ± 0.031 | 0.748 ± 0.053
UGAUAU | 0.0888 ± 0.12 | 1.96 ± 0.028 | 1.776 ± 0.016 | 0.0923 ± 0.28
AGCAGA | 0.386 ± 0.043 | 1.879 ± 0.01 | 1.41 ± 0.027 | 0.623 ± 0.019
AGCAGC | 0.426 ± 0.013 | 1.99 ± 0.058 | 1.74 ± 0.049 | 0.54 ± 0.14
AGCAGG | 0.0745 ± 0.0069 | 1.83 ± 0.055 | 1.396 ± 0.0059 | 0.533 ± 0.079
UGAGUC | 0.177 ± 0.08 | 1.99 ± 0.004 | 1.97 ± 0.025 | -0.0516 ± 0.012
UGAGUG | 0.274 ± 0.026 | 1.9 ± 0.0079 | 1.64 ± 0.047 | 0.263 ± 0.019
AGAUUC | 0.691 ± 0.017 | 1.92 ± 0.051 | 1.92 ± 0.037 | 0.707 ± 0.069
CGCCAG | 0.462 ± 0.027 | 1.99 ± 0.051 | 1.84 ± 0.12 | 0.537 ± 0.0082
GGCAUG | 0.213 ± 0.11 | 1.88 ± 0.058 | 1.45 ± 0.042 | 0.621 ± 0.098
UGCUCA | 0.419 ± 0.016 | 1.94 ± 0.0052 | 1.98 ± 0.061 | 0.498 ± 0.057
UGCGCG | 0.142 ± 0.0059 | 1.94 ± 0.032 | 1.75 ± 0.035 | 0.383 ± 0.012
CGAGUC | 0.0141 ± 0.11 | 1.958 ± 0.016 | 1.91 ± 0.094 | 0.106 ± 0.053
CGAGUU | 0.866 ± 0.02 | 2 ± 0.039 | 1.834 ± 0.015 | 0.833 ± 0.11
CGAGCA | 0.378 ± 0.011 | 1.942 ± 0.0082 | 1.716 ± 0.012 | 0.543 ± 0.087
GGAGGU | 0.54 ± 0.019 | 1.923 ± 0.013 | 1.779 ± 0.01 | 0.48 ± 0.021
GGAGGA | -0.168 ± 0.034 | 1.934 ± 0.0025 | 1.64 ± 0.078 | 0.231 ± 0.0056
GGCUCA | 0.301 ± 0.011 | 1.98 ± 0.031 | 1.91 ± 0.074 | 0.297 ± 0.024
